One assay concerns the target human GLP-1 receptor (human, UniProt P43220). In words: cell-based or functional assay.
The target in a further assay is human glucagon receptor (human, UniProt P47871). Nature of the assay: cell-based or functional assay.

Starred links: 1 amine or outer side, 2 acyl side, 3 side chain; linkers in the order of their positions; H or OH if unused. Non-standard residues stand in square brackets, D forms with d. Groups on a side chain read outwards from the residue. No end group written: not given here. *: point of attachment. C20 diacid = O=C(O)CCCCCCCCCCCCCCCCCCC(=O)*; C18 diacid = O=C(O)CCCCCCCCCCCCCCCCC(=O)*; γGlu = O=C(O)[C@H](CCC(=O)[*:2])N[*:1]; αMeF = C[C@](N)(Cc1ccccc1)C(=O)O; AEEA = NCCOCCOCC(=O)O; Aib = CC(C)(N)C(=O)O

B1: Peptide 513 (peptide)
peptide: H[Aib]QGT[αMeF]TSDVSK[αMeF]LDTK([AEEA-AEEA-γGlu-C18 diacid])RARD[αMeF]VQWLLA[Aib]G-NH2
modifications: N-terminus assumed
SMILES: CC(C)C[C@H](NC(=O)[C@H](CC(C)C)NC(=O)[C@H](Cc1c[nH]c2ccccc12)NC(=O)[C@H](CCC(N)=O)NC(=O)[C@@H](NC(=O)[C@](C)(Cc1ccccc1)NC(=O)[C@H](CC(=O)O)NC(=O)[C@H](CCCNC(=N)N)NC(=O)[C@H](C)NC(=O)[C@H](CCCNC(=N)N)NC(=O)[C@H](CCCCNC(=O)COCCOCCNC(=O)COCCOCCNC(=O)CC[C@H](NC(=O)CCCCCCCCCCCCCCCCC(=O)O)C(=O)O)NC(=O)[C@@H](NC(=O)[C@H](CC(=O)O)NC(=O)[C@H](CC(C)C)NC(=O)[C@](C)(Cc1ccccc1)NC(=O)[C@H](CCCCN)NC(=O)[C@H](CO)NC(=O)[C@@H](NC(=O)[C@H](CC(=O)O)NC(=O)[C@H](CO)NC(=O)[C@@H](NC(=O)[C@](C)(Cc1ccccc1)NC(=O)[C@@H](NC(=O)CNC(=O)[C@H](CCC(N)=O)NC(=O)C(C)(C)NC(=O)[C@@H](N)Cc1c[nH]cn1)[C@@H](C)O)[C@@H](C)O)C(C)C)[C@@H](C)O)C(C)C)C(=O)N[C@@H](C)C(=O)NC(C)(C)C(=O)NCC(N)=O
For B1, the “cAMP production EC50” value with human GLP-1 receptor is 0.0938 nM; with human glucagon receptor, 1.34 nM.

B2: Peptide 517 (peptide)
peptide: H[Aib]QGTFTSDVSK[αMeF]LEAK([AEEA-AEEA-γGlu-γGlu-C18 diacid])AAREFIAWLLET-NH2
modifications: N-terminus assumed
SMILES: CC[C@H](C)[C@H](NC(=O)[C@H](Cc1ccccc1)NC(=O)[C@H](CCC(=O)O)NC(=O)[C@H](CCCNC(=N)N)NC(=O)[C@H](C)NC(=O)[C@H](C)NC(=O)[C@H](CCCCNC(=O)COCCOCCNC(=O)COCCOCCNC(=O)CC[C@H](NC(=O)CC[C@H](NC(=O)CCCCCCCCCCCCCCCCC(=O)O)C(=O)O)C(=O)O)NC(=O)[C@H](C)NC(=O)[C@H](CCC(=O)O)NC(=O)[C@H](CC(C)C)NC(=O)[C@](C)(Cc1ccccc1)NC(=O)[C@H](CCCCN)NC(=O)[C@H](CO)NC(=O)[C@@H](NC(=O)[C@H](CC(=O)O)NC(=O)[C@H](CO)NC(=O)[C@@H](NC(=O)[C@H](Cc1ccccc1)NC(=O)[C@@H](NC(=O)CNC(=O)[C@H](CCC(N)=O)NC(=O)C(C)(C)NC(=O)[C@@H](N)Cc1c[nH]cn1)[C@@H](C)O)[C@@H](C)O)C(C)C)C(=O)N[C@@H](C)C(=O)N[C@@H](Cc1c[nH]c2ccccc12)C(=O)N[C@@H](CC(C)C)C(=O)N[C@@H](CC(C)C)C(=O)N[C@@H](CCC(=O)O)C(=O)N[C@H](C(N)=O)[C@@H](C)O
With B2, the “cAMP production EC50” value is 0.146 nM in the assay with human GLP-1 receptor and 0.738 nM with human glucagon receptor.

B3: Peptide 514 (peptide)
peptide: H[Aib]QGTFTSDVSK[αMeF]LDTK([AEEA-AEEA-γGlu-C18 diacid])AARDFVQWLLE[Aib]G-NH2
modifications: N-terminus assumed
SMILES: CC(C)C[C@H](NC(=O)[C@H](Cc1c[nH]c2ccccc12)NC(=O)[C@H](CCC(N)=O)NC(=O)[C@@H](NC(=O)[C@H](Cc1ccccc1)NC(=O)[C@H](CC(=O)O)NC(=O)[C@H](CCCNC(=N)N)NC(=O)[C@H](C)NC(=O)[C@H](C)NC(=O)[C@H](CCCCNC(=O)COCCOCCNC(=O)COCCOCCNC(=O)CC[C@H](NC(=O)CCCCCCCCCCCCCCCCC(=O)O)C(=O)O)NC(=O)[C@@H](NC(=O)[C@H](CC(=O)O)NC(=O)[C@H](CC(C)C)NC(=O)[C@](C)(Cc1ccccc1)NC(=O)[C@H](CCCCN)NC(=O)[C@H](CO)NC(=O)[C@@H](NC(=O)[C@H](CC(=O)O)NC(=O)[C@H](CO)NC(=O)[C@@H](NC(=O)[C@H](Cc1ccccc1)NC(=O)[C@@H](NC(=O)CNC(=O)[C@H](CCC(N)=O)NC(=O)C(C)(C)NC(=O)[C@@H](N)Cc1c[nH]cn1)[C@@H](C)O)[C@@H](C)O)C(C)C)[C@@H](C)O)C(C)C)C(=O)N[C@@H](CC(C)C)C(=O)N[C@@H](CCC(=O)O)C(=O)NC(C)(C)C(=O)NCC(N)=O
For B3, the “cAMP production EC50” value in the assay with human GLP-1 receptor is 0.0767 nM; in the assay with human glucagon receptor, 1.37 nM.

B4: Peptide 515 (peptide)
peptide: H[Aib]QGTFTSDVSK[αMeF]LDTK([AEEA-AEEA-γGlu-C20 diacid])AARDFVQWLLE[Aib]G-NH2
modifications: N-terminus assumed
SMILES: CC(C)C[C@H](NC(=O)[C@H](Cc1c[nH]c2ccccc12)NC(=O)[C@H](CCC(N)=O)NC(=O)[C@@H](NC(=O)[C@H](Cc1ccccc1)NC(=O)[C@H](CC(=O)O)NC(=O)[C@H](CCCNC(=N)N)NC(=O)[C@H](C)NC(=O)[C@H](C)NC(=O)[C@H](CCCCNC(=O)COCCOCCNC(=O)COCCOCCNC(=O)CC[C@H](NC(=O)CCCCCCCCCCCCCCCCCCC(=O)O)C(=O)O)NC(=O)[C@@H](NC(=O)[C@H](CC(=O)O)NC(=O)[C@H](CC(C)C)NC(=O)[C@](C)(Cc1ccccc1)NC(=O)[C@H](CCCCN)NC(=O)[C@H](CO)NC(=O)[C@@H](NC(=O)[C@H](CC(=O)O)NC(=O)[C@H](CO)NC(=O)[C@@H](NC(=O)[C@H](Cc1ccccc1)NC(=O)[C@@H](NC(=O)CNC(=O)[C@H](CCC(N)=O)NC(=O)C(C)(C)NC(=O)[C@@H](N)Cc1c[nH]cn1)[C@@H](C)O)[C@@H](C)O)C(C)C)[C@@H](C)O)C(C)C)C(=O)N[C@@H](CC(C)C)C(=O)N[C@@H](CCC(=O)O)C(=O)NC(C)(C)C(=O)NCC(N)=O
As to B4, the “cAMP production EC50” value is 0.297 nM with human GLP-1 receptor and 2.66 nM with human glucagon receptor.

B5: Peptide 512 (peptide)
peptide: H[Aib]QGT[αMeF]TSDVSK[αMeF]LDTK([AEEA-AEEA-γGlu-C18 diacid])RAQD[αMeF]VRWLLA[Aib]G-NH2
modifications: N-terminus assumed
SMILES: CC(C)C[C@H](NC(=O)[C@H](CC(C)C)NC(=O)[C@H](Cc1c[nH]c2ccccc12)NC(=O)[C@H](CCCNC(=N)N)NC(=O)[C@@H](NC(=O)[C@](C)(Cc1ccccc1)NC(=O)[C@H](CC(=O)O)NC(=O)[C@H](CCC(N)=O)NC(=O)[C@H](C)NC(=O)[C@H](CCCNC(=N)N)NC(=O)[C@H](CCCCNC(=O)COCCOCCNC(=O)COCCOCCNC(=O)CC[C@H](NC(=O)CCCCCCCCCCCCCCCCC(=O)O)C(=O)O)NC(=O)[C@@H](NC(=O)[C@H](CC(=O)O)NC(=O)[C@H](CC(C)C)NC(=O)[C@](C)(Cc1ccccc1)NC(=O)[C@H](CCCCN)NC(=O)[C@H](CO)NC(=O)[C@@H](NC(=O)[C@H](CC(=O)O)NC(=O)[C@H](CO)NC(=O)[C@@H](NC(=O)[C@](C)(Cc1ccccc1)NC(=O)[C@@H](NC(=O)CNC(=O)[C@H](CCC(N)=O)NC(=O)C(C)(C)NC(=O)[C@@H](N)Cc1c[nH]cn1)[C@@H](C)O)[C@@H](C)O)C(C)C)[C@@H](C)O)C(C)C)C(=O)N[C@@H](C)C(=O)NC(C)(C)C(=O)NCC(N)=O
Turning to B5, the “cAMP production EC50” value with human GLP-1 receptor is 0.159 nM; with human glucagon receptor, 2.31 nM.
